{"source": "patent US20190300618A1", "about": "(Merck Sharp & Dohme, published 2019)", "binders": {"B1": {"name": "hCD27.15-6B (humanized hCD27.15, human IgG4, Clone 6B) (antibody, V domains shown)", "VH": "QVQLVQSGAEVKKPGASVKVSCKASGFIIKATYMHWVRQAPGQRLEWMGRIDPANGETKYDPKFQVRVTITADTSASTAYMELSSLRSEDTAVYYCARYAWYFDVWGQGTLVTVSS", "VL": "DIQMTQSPSSLSASVGDRVTITCRASENIYSFLAWYQQKPGKAPKLLIYHAKTLAEGVTSRFSGSGSGTDFTLTISSLQPEDSATYYCQHYYGSPLTFGQGTRLEIKR", "notes": "humanized version of hCD27.15 from WO2012/004367 with identical CDR regions; also called hCD27.15 (humanized 6B); hCD27.15 6B humanized antibody"}}, "experiment_in_all_cases": "flow cytometry, CHO-K1; single column;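 also: CHO-K1 cells transiently transfected with hCD27 alanine mutant constructs, anti-hCD27 antibody binding measured by flow cytometry, 30 min at 4 °C, wild-type hCD27 binding taken as 100%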", "key": {"[1]": {"biological_target": "T1, Q91A", "T1 construct": "also called hCD27 Q91A", "T1 receptor": "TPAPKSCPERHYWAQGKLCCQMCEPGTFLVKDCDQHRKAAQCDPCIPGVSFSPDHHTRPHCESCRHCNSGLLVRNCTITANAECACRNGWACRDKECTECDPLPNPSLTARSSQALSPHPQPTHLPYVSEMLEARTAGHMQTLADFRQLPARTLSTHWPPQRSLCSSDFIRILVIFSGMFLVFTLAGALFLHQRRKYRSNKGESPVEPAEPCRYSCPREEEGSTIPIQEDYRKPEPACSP"}, "[2]": {"biological_target": "T2, D43A", "T2 construct": "also called hCD27 D43A", "T2 receptor": "T1 receptor with D43A, A91Q"}, "[3]": {"biological_target": "T3, E9A", "T3 construct": "also called hCD27 E9A", "T3 receptor": "T1 receptor with E9A, A91Q"}, "[4]": {"biological_target": "T4, N88A", "T4 construct": "also called hCD27 N88A", "T4 receptor": "T1 receptor with N88A, A91Q"}, "[5]": {"biological_target": "T5, H36A", "T5 construct": "also called hCD27 H36A", "T5 receptor": "T1 receptor with H36A, A91Q"}, "[6]": {"biological_target": "T6, G89A", "T6 construct": "also called hCD27 G89A", "T6 receptor": "T1 receptor with G89A, A91Q"}, "[7]": {"biological_target": "T7, I46A", "T7 construct": "also called hCD27 I46A", "T7 receptor": "T1 receptor with I46A, A91Q"}, "[8]": {"biological_target": "T8, K31A", "T8 construct": "also called hCD27 K31A", "T8 receptor": "T1 receptor with K31A, A91Q"}, "[9]": {"biological_target": "T9, S63A", "T9 construct": "also called hCD27 S63A", "T9 receptor": "T1 receptor with S63A, A91Q"}, "[10]": {"biological_target": "T10, R93A", "T10 construct": "also called hCD27 R93A", "T10 receptor": "T1 receptor with A91Q, R93A"}}, "note": "Positions count from the first letter of the chain named."}
{"binder": "B1", "values": [{"measurement": "% of WT hCD27 binding (geo mean FITC)", "setting": "[1]", "value": 136, "unit": "%"}, {"measurement": "% of WT hCD27 binding (geo mean FITC)", "setting": "[2]", "value": 31, "unit": "%"}, {"measurement": "% of WT hCD27 binding (geo mean FITC)", "setting": "[3]", "value": 58.5, "unit": "%"}, {"measurement": "% of WT hCD27 binding (geo mean FITC)", "setting": "[4]", "value": 132, "unit": "%"}, {"measurement": "% of WT hCD27 binding (geo mean FITC)", "setting": "[5]", "value": 122, "unit": "%"}, {"measurement": "% of WT hCD27 binding (geo mean FITC)", "setting": "[6]", "value": 97.4, "unit": "%"}, {"measurement": "% of WT hCD27 binding (geo mean FITC)", "setting": "[7]", "value": 81.9, "unit": "%"}, {"measurement": "% of WT hCD27 binding (geo mean FITC)", "setting": "[8]", "value": 30.3, "unit": "%"}, {"measurement": "% of WT hCD27 binding (geo mean FITC)", "setting": "[9]", "value": 104, "unit": "%"}, {"measurement": "% of WT hCD27 binding (geo mean FITC)", "setting": "[10]", "value": 131, "unit": "%"}]}
